Assay results as given in PMC6433865.

Experiments:
[1] = target: T1, C terminus of Hsc70-interacting protein (CHIP) (human), Q9UNE7; assay: cryo-EM structure; ternary complexes after GraFix, vitrified; Titan Krios 300 kV (Hsp70:p53-TMGST:CHIP, 15 Å) or Talos Arctica 200 kV (Hsp90:p53-TMGST:CHIP, 13 Å); atomic structures docked; conditions: remark: other sources report otherwise
T1 chain: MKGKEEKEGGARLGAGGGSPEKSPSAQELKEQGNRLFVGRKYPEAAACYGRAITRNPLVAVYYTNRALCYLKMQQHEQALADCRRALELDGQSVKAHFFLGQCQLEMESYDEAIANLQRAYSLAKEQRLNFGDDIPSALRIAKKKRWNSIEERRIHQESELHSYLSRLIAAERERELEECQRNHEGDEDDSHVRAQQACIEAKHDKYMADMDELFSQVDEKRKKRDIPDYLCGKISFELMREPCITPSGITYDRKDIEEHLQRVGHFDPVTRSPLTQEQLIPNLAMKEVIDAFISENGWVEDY

[2] = target: T1, C terminus of Hsc70-interacting protein …; assay: negative-stain electron microscopy, 3D reconstruction; complexes stabilised and isolated by GraFix (10-30% glycerol gradient, 0.15% glutaraldehyde), stained with 2% uranyl acetate, JEOL JEM1010 at 80 kV; atomic structures docked into 19-26 Å volumes; conditions: remark: other sources report otherwise

B1: C terminus of Hsc70-interacting protein (CHIP), Q9UNE7 1-303 (enzyme)
chain: T1 chain
B1 gave a stoichiometry N [1] of 2 and a stoichiometry N [2] of 2.
